Laboratory results reported in patent publication US20160311918A1, “Anti-Ron Monoclonal Antibodies as a Cytotoxic Drug Delivery System for Targeted Cancer Therapy” (TEXAS TECH UNIVERSITY SYSTEM, priority 2013, published 2016).
Values joined by “and” are separate entries in the source; they are usually repeats but may differ in a detail not shown here. Identical values can stand only once.

Tests used:
HT29 cells = test: Cell viability assay, HT29; assay type: cell-based, human; conditions: read-out: IC50 cell viability, free DM1
Method: (§1) Cell viability was determined by the MTS assay. […] Morphological changes were observed under the Olympus BK-41 inverted microscope and photographed. […] FIG. 3D: Cell death percentages were determined by the trypan blue exclusion method.
(§2) Cell viability and death assays: Cell viability 72 h after Zt/g4-DM1 treatment was determined by the MTT assay (22). Viable or dead cells were determined by the trypan blue exclusion assay. A total of 900 cells were counted from three individual wells to reach the percentages of dead cells.
(§3) The effect of Zt/g4-DM1 on cell viability was determined. […] The cells were treated with Zt/g4-DM1.

HCT116 cells = test: Cell viability assay, HCT116; assay type: cell-based, human; conditions: read-out: IC50 cell viability, free DM1
Method: as §1, §2, §3

SW620 cells = test: Cell viability assay, SW620; assay type: cell-based, human; conditions: read-out: IC50 cell viability, free DM1
Method: as §1, §2, §3

[1] = target: T1, oncogenic RON variant RON160 (human, UniProt Q04912 25-1400, limits assumed); test: receptor binding studies; format not stated
T1 construct: also called RONΔ160

[2] = tested on: human RON and its oncogenic variants such as RON160; test: Zt/f2 receptor binding to human RON
Excerpt: (§4) This sequence is critical in regulating RON maturation and phosphorylation. […] These biochemical features provide the cellular basis for the use of Zt/f2 to inhibit tumor growth in animal model. Repeated administration of Zt/f2 as a single agent into Balb/c mice results in partial inhibition of tumor growth caused by transformed NIH-3T3 cells expressing oncogenic RON160. Colon cancer HT-29 cell-mediated tumor growth in athymic nude mice also was attenuated following Zt/f2 treatment. In both cases, ˜50% inhibition of tumor growth as measured by tumor volume was achieved. […] The present inventors conclude that Zt/f2 is a potential therapeutic mAb capable of inhibiting RON-mediated oncogenesis by colon cancer cells in animal models. The inhibitory effect of Zt/f2 in vivo in combination with chemoagent 5-fluorouracil could represent a novel strategy for future colon cancer therapy.

[3] = tested on: transformed NIH-3T3 cells expressing oncogenic RON160; test: Tumor growth by NIH-3T3 cells expressing RON160 in Balb/c mice; assay type: in vivo, mouse; conditions: repeated administration, single agent
Excerpt: as §4

[4] = tested on: Colon cancer HT-29 cell-mediated tumor growth; test: HT-29 cell-mediated tumor growth in athymic nude mice (Zt/f2); assay type: in vivo, mouse
Excerpt: as §4

RON = RON (Homo sapiens, UniProt Q04912); test: Classification of anti-RON mAbs by activity upon binding to RON; assay type: cell-based
Excerpt: Using an advanced living cell immunization method, the present inventors were able to generate mAbs specific only to the RON extracellular domains. Using flow cytometer in conjunction with biological assays, the present inventors characterize our anti-RON mAbs for their specificity and sensitivity. […] This is based on direct binding, ELISA, IHC, Western blotting and other biochemical and biological assays. Moreover, based on their activities upon binding to RON, the present inventors were able to classify the anti-RON mAb into three categories. […] This type of anti-RON mAbs is considered as agnostic antibodies. The representatives are Zt/g4, Zt/c1, Zt/c9, Zt/f1, and Zt/H12. […] The typical examples are Zt/g9 and Zt/c8. […] One example is Zt/f2. The present inventors considered this type of mAb having therapeutic potentials.

[5] = target: T2, human RON receptor tyrosine kinase (recepteur d'origine nantais) (human, UniProt Q04912 25-1400); test: cell-based or functional assay
[6] = target: T2, human RON receptor tyrosine kinase …; test: cell-based or functional assay; remark: listed apart in the source
[7] = target: T2, human RON receptor tyrosine kinase …; test: direct binding, ELISA, IHC, Western blotting, flow cytometry
mouse RON homologue = target: T3, mouse RON homologue (Mus musculus, UniProt Q62190); conditions: cited from earlier work
T3 sequence (Q62190 24-1378): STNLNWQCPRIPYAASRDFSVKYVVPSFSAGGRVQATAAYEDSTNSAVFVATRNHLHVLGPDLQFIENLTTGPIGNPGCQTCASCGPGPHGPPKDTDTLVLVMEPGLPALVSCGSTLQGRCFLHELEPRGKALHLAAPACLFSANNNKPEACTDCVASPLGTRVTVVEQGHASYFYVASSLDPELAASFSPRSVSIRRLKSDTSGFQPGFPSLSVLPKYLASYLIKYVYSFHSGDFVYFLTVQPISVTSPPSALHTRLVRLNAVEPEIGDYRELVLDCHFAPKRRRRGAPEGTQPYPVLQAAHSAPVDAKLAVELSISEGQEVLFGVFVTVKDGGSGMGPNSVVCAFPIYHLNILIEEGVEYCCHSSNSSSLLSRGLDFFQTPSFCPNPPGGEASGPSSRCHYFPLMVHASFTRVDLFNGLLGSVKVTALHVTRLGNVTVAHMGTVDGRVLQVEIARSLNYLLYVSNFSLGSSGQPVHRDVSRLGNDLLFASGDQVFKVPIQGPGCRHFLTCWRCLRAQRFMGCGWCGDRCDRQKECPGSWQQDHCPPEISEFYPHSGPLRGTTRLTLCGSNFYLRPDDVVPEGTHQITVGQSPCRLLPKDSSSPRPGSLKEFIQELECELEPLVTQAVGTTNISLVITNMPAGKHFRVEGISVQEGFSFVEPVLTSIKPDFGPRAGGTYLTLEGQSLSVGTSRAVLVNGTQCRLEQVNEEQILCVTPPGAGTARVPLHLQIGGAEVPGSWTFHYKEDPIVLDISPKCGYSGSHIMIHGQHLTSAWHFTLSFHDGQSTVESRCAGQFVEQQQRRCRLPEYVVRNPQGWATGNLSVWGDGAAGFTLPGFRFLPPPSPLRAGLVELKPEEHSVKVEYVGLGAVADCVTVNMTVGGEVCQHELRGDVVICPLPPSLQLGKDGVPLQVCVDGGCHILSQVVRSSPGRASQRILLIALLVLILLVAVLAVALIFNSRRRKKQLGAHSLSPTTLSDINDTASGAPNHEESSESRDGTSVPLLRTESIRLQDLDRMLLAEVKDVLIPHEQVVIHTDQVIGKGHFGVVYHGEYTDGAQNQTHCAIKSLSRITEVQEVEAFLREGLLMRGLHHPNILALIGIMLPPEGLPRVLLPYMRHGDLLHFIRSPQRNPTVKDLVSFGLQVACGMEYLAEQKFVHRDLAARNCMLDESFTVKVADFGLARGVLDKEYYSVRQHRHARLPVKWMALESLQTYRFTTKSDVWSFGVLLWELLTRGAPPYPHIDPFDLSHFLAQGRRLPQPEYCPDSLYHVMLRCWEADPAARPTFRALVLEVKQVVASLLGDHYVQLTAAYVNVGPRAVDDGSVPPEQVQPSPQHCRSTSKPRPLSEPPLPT

cell surface RON = cell surface RON (Homo sapiens, UniProt Q04912); test: Antibody-induced RON endocytosis in cancerous cells; assay type: cell-based; design: cause rapid and significant amount of cell surface RON internalization in cancerous cells; endogenous in cells
Excerpt: During characterization of anti-RON mAbs, the present inventors discovered that agonistic anti-RON mAb such as Zt/g4 and Zt/c1 binds to RON and cause rapid and significant amount of cell surface RON internalization in cancerous cells (a process known as antibody-induced receptor endocytosis). […] Fab fragments that fail to cause RON activation cannot induce RON endocytosis. In light of these findings, the present inventors conclude that anti-RON mAb-induced RON endocytosis can be used as a pharmaceutical means for targeted drug delivery.

[8] = tested on: human pancreatic cancer cells; test: PDAC cell viability in combination with chemotherapeutics; assay type: cell-based
Method: In vitro cell viability and death assays: Cell viability after treatment of Zt/g4-DM1, chemotherapeutics, and their combinations was determined by the MTT assay. Cell death was determined by the trypan blue exclusion assay.
FIGS. 10A to 10D are graphs that show the effect of Zt/g4-DM1 on pancreatic cancer cell cycle, viability, and apoptotic death. […] FIG. 12 are graphs that show synergism between Zt/g4-DM1 and chemotherapeutics by isobolograms.

Chain of cell surface RON (Q04912 25-1400): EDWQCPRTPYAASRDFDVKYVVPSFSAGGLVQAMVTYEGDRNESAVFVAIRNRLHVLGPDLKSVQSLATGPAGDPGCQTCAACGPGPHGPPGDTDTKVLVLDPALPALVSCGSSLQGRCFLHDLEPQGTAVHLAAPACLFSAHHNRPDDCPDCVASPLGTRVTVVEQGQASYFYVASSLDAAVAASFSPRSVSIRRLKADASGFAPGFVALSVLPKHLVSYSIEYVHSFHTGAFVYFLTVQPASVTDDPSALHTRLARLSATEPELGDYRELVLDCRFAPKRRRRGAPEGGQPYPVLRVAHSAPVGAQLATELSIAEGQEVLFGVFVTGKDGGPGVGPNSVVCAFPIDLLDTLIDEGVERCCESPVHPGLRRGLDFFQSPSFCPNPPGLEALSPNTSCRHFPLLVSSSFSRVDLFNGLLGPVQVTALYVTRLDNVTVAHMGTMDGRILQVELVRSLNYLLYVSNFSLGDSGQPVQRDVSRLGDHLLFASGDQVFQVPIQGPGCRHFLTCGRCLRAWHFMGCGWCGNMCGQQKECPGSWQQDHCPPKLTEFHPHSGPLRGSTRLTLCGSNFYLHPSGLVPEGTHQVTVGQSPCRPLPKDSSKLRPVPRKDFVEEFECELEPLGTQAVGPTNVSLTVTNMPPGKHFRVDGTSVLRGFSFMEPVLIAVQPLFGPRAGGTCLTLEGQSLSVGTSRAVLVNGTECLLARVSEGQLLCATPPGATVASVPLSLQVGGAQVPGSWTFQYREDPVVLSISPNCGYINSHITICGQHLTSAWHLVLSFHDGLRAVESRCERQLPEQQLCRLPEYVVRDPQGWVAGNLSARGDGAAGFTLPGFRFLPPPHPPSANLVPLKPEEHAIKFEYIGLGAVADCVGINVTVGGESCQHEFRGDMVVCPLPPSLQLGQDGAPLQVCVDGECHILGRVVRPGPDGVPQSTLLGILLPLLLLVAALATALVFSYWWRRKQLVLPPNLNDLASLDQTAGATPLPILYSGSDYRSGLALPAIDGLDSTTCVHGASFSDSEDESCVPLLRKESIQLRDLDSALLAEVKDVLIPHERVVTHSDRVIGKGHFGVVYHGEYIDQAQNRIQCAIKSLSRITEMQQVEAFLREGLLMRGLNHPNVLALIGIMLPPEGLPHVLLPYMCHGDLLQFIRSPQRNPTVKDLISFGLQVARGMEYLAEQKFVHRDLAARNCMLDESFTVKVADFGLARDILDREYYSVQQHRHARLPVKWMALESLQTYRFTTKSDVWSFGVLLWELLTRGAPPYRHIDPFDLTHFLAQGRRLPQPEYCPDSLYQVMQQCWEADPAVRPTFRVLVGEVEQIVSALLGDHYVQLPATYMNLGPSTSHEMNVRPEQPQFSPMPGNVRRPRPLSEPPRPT
Chain of RON (Q04912 25-1400): as above

Molecule: COc1cc2cc(c1Cl)N(C)C(=O)C[C@H](OC(=O)[C@H](C)N(C)C(=O)CCS)[C@]1(C)O[C@H]1[C@H](C)[C@@H]1C[C@@](O)(NC(=O)O1)[C@H](OC)/C=C/C=C(\C)C2 [DM1, Maytansinoid (DM1)]
- IC50 (HT29 cells): 4.4 nM
- IC50 (HCT116 cells): 4.1 nM
- IC50 (SW620 cells): 3.2 nM

B1: mouse monoclonal antibody Zt/f2 specific to human RON (antibody, V domains shown)
VH: QVQLQQSGAELAKPGASVKMSCKASGYTFTSYWMHWVKQRPGQGLEWIGYINPSTGYIEYNQNFKDKATLTADKSSSTAYMQLSSLTSEDSAVYYCARSPSHYYGSRYGYFDVWGAGTTVTVSS
VL: QIVLSQSPAILSASPGEKVTMTCRASSSVSYMHWYQQKPGSSPKPWIYATSNLASGVPARFSGSGSGTSYSLTISRVEAEDAATYYCQQWSSNPRTFGGGTKLEIK
notes: Mouse IgG2a; also called anti-RON mAb Zt/f2
- EC50 [1]: 2.3 nM

B2: Zt/f2: mouse IgG2a mAb specific to human RON and its oncogenic variants such as RON160 (antibody, V domains shown)
VH: B1 VH
VL: B1 VL
- competition with ligand macrophage-stimulating protein for binding to RON [2]: did not compete
- inhibition of tumor growth as measured by tumor volume [3]: ~50%
- inhibition effect on HT-29 cell-mediated tumor growth ([4]; in combination with 5-fluorouracil): ~80%
- inhibition of tumor growth as measured by tumor volume ([4]; single agent, athymic nude mice): ~50%
- activity upon binding to RON (RON): inhibit RON activation and signaling

B3: anti-RON antibody Zt/g4-maytansinoid (DM1) conjugate Zt/g4-DM1 (antibody, V domains shown)
VH: EVQLQQSGAELVKPGASVKLSCTTSGFNIIDTYIHWVNQKPDQGLEWIGRIDPADGNRKSDPKFQVKATITVDTSSNTAYLQLSSLTSGDTAVYYCARGYGNLNAMDSWGQGTSVTVSS
VL: DIQMNQSPSSLSASLGDTITITCHASQNINVWLNWYQQKPGNIPKLLIYKASNLHTGVPSRFSGSGSGTGFTLTISSLQPEDIATYYCQQGQSYPLTFGGGTKLEIK
modifications: DM1 conjugated by non-reducible thioether linkage (SMCC) through lysine residues in the antibody molecule; sites not stated; DM1 conjugated by non-reducible thioether linkage (SMCC) through lysine residues in the antibody molecule; average DAR 3.724; sites not stated
- IC50 of cell death at 72 h, three CRC cell lines [5]: 5 to 7 mg/L
- IC50 of cell viability at 72 h, HCT116 cells [5]: 2.16 mg/L
- IC50 of cell viability at 72 h, HT29 cells [5]: 1.64 mg/L
- IC50 of cell viability at 72 h, SW620 cells [5]: 4.03 mg/L
- IC50 of cell viability, DLD1 cells [5]: 20.4 mg/L
- average IC50 value in causing cell death, three PDAC cell lines (L3.6pl, BxPC-3, FG) [5]: 3.13 mg/L
- IC50 value, cytotoxic effect on HT-29 cells [6]: 1.25 µg/mL and 8.32 nM

B4: mouse anti-RON monoclonal antibody Zt/g4 (antibody, V domains shown)
VH: B3 VH
VL: B3 VL
notes: Mouse IgG1a/kappa from hybridoma; The leader is not part of the antibody as tested; also called free Zt/g4; anti-RON mAb Zt/g4
- binding result [7]: binds

B5: Zt/g4: mouse monoclonal antibody (IgG1α/κ) highly specific to human RON, recognizes the RON sema domain (antibody, V domains shown)
VH: B3 VH
VL: B3 VL
- activity upon binding to RON (RON): cause transient RON phosphorylation
- species recognition of RON (mouse RON homologue): only recognizes human RON but not mouse RON homologue
- absence of RON expression in cancerous cells in culture (cell surface RON; after endocytosis): up to 72 h
- cell surface RON internalization (cell surface RON; within 24 h, 10 μg/ml/1×10^6 cancer cells): almost all cell surface RON is internalized

B6: Zt/g4-MMAE (antibody, V domains shown)
VH: B3 VH
VL: B3 VL
modifications: monomethyl auristatin E (MMAE) conjugated; average drug to antibody ratio 3.8:1; sites not stated
- average IC50 value in causing cell death, three PDAC cell lines (L3.6pl, BxPC-3, FG) [5]: 5.16 mg/L

B7: Zt/g4-MMAE: Zt/g4 conjugated to monomethyl auristatin E (MMAE) (conjugate)
VH: B3 VH
VL: B3 VL
- combination effect on viability of human pancreatic cancer cells ([8]; in combination with Gemcitabine): synergistic activity
- combination effect on viability of human pancreatic cancer cells ([8]; in combination with Oxaliplatin): synergistic activity
